Laboratory results from patent US20090158448A1 (NATIONAL UNIVERSITY CORPORATION TOKYO MEDICAL AND DENTAL …, published 2009).

T1: mutant MuSK (NA), myc tag (mouse, UniProt Q61006 22-868, limits assumed)
T1 construct: Mutation in the NPXY PTB domain target motif; also called NA mutant; not shown: myc tag
T1 sequence: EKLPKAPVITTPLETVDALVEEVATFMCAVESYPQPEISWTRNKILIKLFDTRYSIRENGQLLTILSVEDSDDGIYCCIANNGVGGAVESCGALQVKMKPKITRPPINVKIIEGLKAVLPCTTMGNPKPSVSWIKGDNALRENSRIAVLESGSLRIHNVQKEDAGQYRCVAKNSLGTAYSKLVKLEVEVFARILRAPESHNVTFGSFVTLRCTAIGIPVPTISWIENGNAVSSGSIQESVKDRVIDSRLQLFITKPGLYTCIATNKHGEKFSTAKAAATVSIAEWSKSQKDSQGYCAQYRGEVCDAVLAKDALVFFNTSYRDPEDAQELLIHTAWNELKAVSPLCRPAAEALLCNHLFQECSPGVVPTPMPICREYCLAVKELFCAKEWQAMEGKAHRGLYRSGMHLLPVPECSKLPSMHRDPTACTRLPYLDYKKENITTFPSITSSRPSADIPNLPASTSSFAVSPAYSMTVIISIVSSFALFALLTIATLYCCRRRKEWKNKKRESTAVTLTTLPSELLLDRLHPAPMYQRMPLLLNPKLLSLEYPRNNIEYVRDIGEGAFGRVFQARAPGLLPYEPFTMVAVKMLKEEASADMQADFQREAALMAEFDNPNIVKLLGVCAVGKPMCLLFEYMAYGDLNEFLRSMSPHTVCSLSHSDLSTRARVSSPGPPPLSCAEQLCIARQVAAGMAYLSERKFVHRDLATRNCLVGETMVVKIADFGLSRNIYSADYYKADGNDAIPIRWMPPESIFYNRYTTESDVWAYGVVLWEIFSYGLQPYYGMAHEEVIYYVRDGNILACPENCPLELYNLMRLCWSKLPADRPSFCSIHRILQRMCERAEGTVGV

T2: mutant MuSK (YF), myc tag (mouse, UniProt Q61006 22-868, limits assumed)
T2 construct: Mutation in the NPXY PTB domain target motif; also called YF mutant; not shown: myc tag
T2 sequence: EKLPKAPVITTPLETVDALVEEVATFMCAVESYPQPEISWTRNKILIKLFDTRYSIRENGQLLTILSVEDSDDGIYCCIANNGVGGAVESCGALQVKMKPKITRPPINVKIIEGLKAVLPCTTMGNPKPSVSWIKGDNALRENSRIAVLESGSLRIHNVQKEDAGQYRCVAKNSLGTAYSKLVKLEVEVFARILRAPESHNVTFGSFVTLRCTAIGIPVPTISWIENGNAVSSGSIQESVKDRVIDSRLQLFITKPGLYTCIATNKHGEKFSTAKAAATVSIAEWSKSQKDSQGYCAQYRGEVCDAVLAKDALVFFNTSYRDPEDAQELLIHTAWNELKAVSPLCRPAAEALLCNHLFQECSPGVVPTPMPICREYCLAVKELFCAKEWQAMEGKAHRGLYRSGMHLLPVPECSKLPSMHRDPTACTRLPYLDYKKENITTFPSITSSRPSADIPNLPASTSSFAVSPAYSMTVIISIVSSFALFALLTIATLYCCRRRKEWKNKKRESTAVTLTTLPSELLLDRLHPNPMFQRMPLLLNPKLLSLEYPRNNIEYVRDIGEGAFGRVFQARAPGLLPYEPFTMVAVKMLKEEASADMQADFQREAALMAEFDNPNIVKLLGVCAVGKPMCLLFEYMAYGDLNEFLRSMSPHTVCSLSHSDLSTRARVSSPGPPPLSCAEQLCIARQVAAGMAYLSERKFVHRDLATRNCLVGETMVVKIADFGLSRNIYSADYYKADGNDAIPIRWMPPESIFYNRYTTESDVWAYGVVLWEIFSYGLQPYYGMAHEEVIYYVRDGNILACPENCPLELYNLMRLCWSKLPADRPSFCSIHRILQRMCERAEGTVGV

T3: wild type (WT) mouse MuSK fused to myc tag (mouse, UniProt Q61006 22-868, limits assumed)
T3 construct: also called wild type MuSK (WT); muscle-specific tyrosine kinase; not shown: myc tag
T3 sequence: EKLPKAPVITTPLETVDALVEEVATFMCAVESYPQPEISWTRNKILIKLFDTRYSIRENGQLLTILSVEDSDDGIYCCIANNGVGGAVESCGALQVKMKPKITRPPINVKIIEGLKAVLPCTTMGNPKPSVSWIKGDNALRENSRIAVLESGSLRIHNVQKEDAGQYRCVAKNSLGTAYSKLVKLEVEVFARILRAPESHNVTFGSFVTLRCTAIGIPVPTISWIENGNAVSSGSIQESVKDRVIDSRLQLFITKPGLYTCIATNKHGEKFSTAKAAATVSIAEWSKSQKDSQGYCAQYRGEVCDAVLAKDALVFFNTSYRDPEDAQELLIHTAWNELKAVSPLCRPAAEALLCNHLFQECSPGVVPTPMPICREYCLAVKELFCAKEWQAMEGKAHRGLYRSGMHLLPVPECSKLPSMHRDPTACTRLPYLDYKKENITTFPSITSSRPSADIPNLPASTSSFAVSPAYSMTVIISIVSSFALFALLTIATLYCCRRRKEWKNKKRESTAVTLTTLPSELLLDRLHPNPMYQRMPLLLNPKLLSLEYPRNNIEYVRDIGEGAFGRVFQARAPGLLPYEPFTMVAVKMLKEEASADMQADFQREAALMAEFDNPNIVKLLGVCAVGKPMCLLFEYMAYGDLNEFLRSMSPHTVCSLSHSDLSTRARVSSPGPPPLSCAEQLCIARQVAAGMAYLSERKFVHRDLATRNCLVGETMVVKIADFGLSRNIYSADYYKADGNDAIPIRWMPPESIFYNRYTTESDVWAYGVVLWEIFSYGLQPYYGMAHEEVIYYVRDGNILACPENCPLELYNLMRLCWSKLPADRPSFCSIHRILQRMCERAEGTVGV


Assays:
Assay in all cases: co-immunoprecipitation (anti-myc) and western, 293T cells
[1] = biological target: T1, mutant MuSK (NA), myc tag
Description: (§1) Immunoprecipitation of whole cell lysate (WCL) obtained from each transformed cell strain was carried out using an anti-myc tag antibody, and thus an immunoprecipitate (IP: αmyc) was obtained. Then, a western blot analysis was performed for the whole cell lysate and immunoprecipitate. The antibodies used were the same as the antibodies described above.
(§2) Then, immunoprecipitation of whole cell lysate (WCL) obtained from each transformed cell strain was carried out, and a western analysis was performed on the resulting immunoprecipitate (IP: αmyc). The antibodies used were the same as the antibodies described above.

[2] = biological target: T2, mutant MuSK (YF), myc tag
Description: as §1, §2

[3] = biological target: T3, wild type (WT) mouse MuSK fused to myc …
Description: as §1, §2

binding result [1] | binding result [2] | binding result [3] | Binder
no binding | no binding |  | wild type human Dok-7 protein (other, also called WT; polypeptide of the present invention) MTEAALVEGQVKLRDGKKWKSRWLVLRKPSPVADCLLMLVYKDKSERIKGLRERSSLTLEDICGLEPGLPYEGLVHTLAIVCLSQAIMLGFDSHEAMCAWDARIRYALGEVHRFHVTVAPGTKLESGPATLHLCNDVLVLARDIPPAVTGQWKLSDLRRYGAVPSGFIFEGGTRCGYWAGVFFLSSAEGEQISFLFDCIVRGISPTKGPFGLRPVLPDPSPPGPSTVEERVAQEALETLQLEKRLSLLSHAGRPGSGGDDRSLSSSSSEASHLDVSASSRLTAWPEQSSSSASTSQEGPRPAAAQAAGEAMVGASRPPPKPLRPRQLQEVGRQSSSDSGIATGSHSSYSSSLSSYAGSSLDVWRATDELGSLLSLPAAGAPEPSLCTCLPGTVEYQVPTSLRAHYDTPRSLCLAPRDHSPPSQGSPGNSAARDSGGQTSAGCPSGWLGTRRRGLVMEAPQGSEATLPGPAPGEPWEAGGPHAGPPPAFFSACPVCGGLKVNPPP
 |  | no binding | mutant Dok-7 (RA) (other, also called RA of Dok-7) MTEAALVEGQVKLRDGKKWKSRWLVLRKPSPVADCLLMLVYKDKSERIKGLRERSSLTLEDICGLEPGLPYEGLVHTLAIVCLSQAIMLGFDSHEAMCAWDARIRYALGEVHRFHVTVAPGTKLESGPATLHLCNDVLVLARDIPPAVTGQWKLSDLAAYGAVPSGFIFEGGTACGYWAGVFFLSSAEGEQISFLFDCIVRGISPTKGPFGLRPVLPDPSPPGPSTVEERVAQEALETLQLEKRLSLLSHAGRPGSGGDDRSLSSSSSEASHLDVSASSRLTAWPEQSSSSASTSQEGPRPAAAQAAGEAMVGASRPPPKPLRPRQLQEVGRQSSSDSGIATGSHSSYSSSLSSYAGSSLDVWRATDELGSLLSLPAAGAPEPSLCTCLPGTVEYQVPTSLRAHYDTPRSLCLAPRDHSPPSQGSPGNSAARDSGGQTSAGCPSGWLGTRRRGLVMEAPQGSEATLPGPAPGEPWEAGGPHAGPPPAFFSACPVCGGLKVNPPP
